In paper PMC10065947:

Tests used:
[1] = molecular target: naïve fusion of WT Fyn-SH3 and WT COMT (UniProt P06241)
SH3-588 [2] = molecular target: SH3-588 (UniProt P06241)
SH3-003 = SH3-003 (UniProt P06241)
[3] = molecular target: catechol O-methyltransferase (COMT), wild type (UniProt P22734)
SH3-588 [4] = molecular target: SH3-588 (UniProt P06241); experiment: fluorescence polarisation
naïve fusion 2 = naïve fusion 2 (UniProt P06241)

Sequence of catechol O-methyltransferase (COMT), wild type (P22734 44-264): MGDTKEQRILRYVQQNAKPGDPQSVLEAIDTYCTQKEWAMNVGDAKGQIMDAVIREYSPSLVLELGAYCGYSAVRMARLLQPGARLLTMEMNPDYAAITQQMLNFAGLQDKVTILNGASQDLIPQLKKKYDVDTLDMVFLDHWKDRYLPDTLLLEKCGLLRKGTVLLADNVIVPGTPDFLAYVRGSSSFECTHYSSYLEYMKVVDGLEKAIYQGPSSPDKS

Row | Binder | KM of methylation (steady-state kinetics, MTase-Glo) [1] [µM] | KM of methylation (steady-state kinetics, MTase-Glo) (SH3-588 [2]) [µM] | KM of methylation (steady-state kinetics, MTase-Glo) [3] [µM] | Kd (SH3-588 [4]) [µM] | other results
1 | MKEARSAEAKEAGRGSGGSKNFLDY (HELM PEPTIDE1{M.K.E.A.R.S.A.E.A.K.E.A.G.R.G.S.G.G.S.K.N.F.L.D.[O=C([C@H](Cc1ccc(O)c(O)c1)N[*:1])[*:2]].[am]}$$$$V2.0; N-terminus assumed; SMILES CSCC[C@H](N)C(=O)N[C@@H](CCCCN)C(=O)N[C@@H](CCC(=O)O)C(=O)N[C@@H](C)C(=O)N[C@@H](CCCNC(=N)N)C(=O)N[C@@H](CO)C(=O)N[C@@H](C)C(=O)N[C@@H](CCC(=O)O)C(=O)N[C@@H](C)C(=O)N[C@@H](CCCCN)C(=O)N[C@@H](CCC(=O)O)C(=O)N[C@@H](C)C(=O)NCC(=O)N[C@@H](CCCNC(=N)N)C(=O)NCC(=O)N[C@@H](CO)C(=O)NCC(=O)NCC(=O)N[C@@H](CO)C(=O)N[C@@H](CCCCN)C(=O)N[C@@H](CC(N)=O)C(=O)N[C@@H](Cc1ccccc1)C(=O)N[C@@H](CC(C)C)C(=O)N[C@@H](CC(=O)O)C(=O)N[C@@H](Cc1ccc(O)c(O)c1)C(N)=O) [peptide 1] | 40 | 19 | 42 | – | KM of methylation (steady-state kinetics, MTase-Glo) (SH3-003): 30 µM
2 | APPAPPRNRPRRSGKNFLDY (HELM PEPTIDE1{A.P.P.A.P.P.R.N.R.P.R.R.S.G.K.N.F.L.D.[O=C([C@H](Cc1ccc(O)c(O)c1)N[*:1])[*:2]].[am]}$$$$V2.0; N-terminus assumed; SMILES CC(C)C[C@H](NC(=O)[C@H](Cc1ccccc1)NC(=O)[C@H](CC(N)=O)NC(=O)[C@H](CCCCN)NC(=O)CNC(=O)[C@H](CO)NC(=O)[C@H](CCCNC(=N)N)NC(=O)[C@H](CCCNC(=N)N)NC(=O)[C@@H]1CCCN1C(=O)[C@H](CCCNC(=N)N)NC(=O)[C@H](CC(N)=O)NC(=O)[C@H](CCCNC(=N)N)NC(=O)[C@@H]1CCCN1C(=O)[C@@H]1CCCN1C(=O)[C@H](C)NC(=O)[C@@H]1CCCN1C(=O)[C@@H]1CCCN1C(=O)[C@H](C)N)C(=O)N[C@@H](CC(=O)O)C(=O)N[C@@H](Cc1ccc(O)c(O)c1)C(N)=O) [peptide 5] | – | 1.5 | – | 22 | –
3 | EWAPPLPPRNRPRRSYSK (HELM PEPTIDE1{E.W.A.P.P.L.P.P.R.N.R.P.R.R.S.[O=C([C@H](Cc1ccc(O)c(O)c1)N[*:1])[*:2]].S.K.[am]}$$$$V2.0; N-terminus assumed; SMILES CC(C)C[C@H](NC(=O)[C@@H]1CCCN1C(=O)[C@@H]1CCCN1C(=O)[C@H](C)NC(=O)[C@H](Cc1c[nH]c2ccccc12)NC(=O)[C@@H](N)CCC(=O)O)C(=O)N1CCC[C@H]1C(=O)N1CCC[C@H]1C(=O)N[C@@H](CCCNC(=N)N)C(=O)N[C@@H](CC(N)=O)C(=O)N[C@@H](CCCNC(=N)N)C(=O)N1CCC[C@H]1C(=O)N[C@@H](CCCNC(=N)N)C(=O)N[C@@H](CCCNC(=N)N)C(=O)N[C@@H](CO)C(=O)N[C@@H](Cc1ccc(O)c(O)c1)C(=O)N[C@@H](CO)C(=O)N[C@@H](CCCCN)C(N)=O) [peptide 7] | 400 | 130 | – | – | KM of methylation (steady-state kinetics, MTase-Glo) (naïve fusion 2): 0.6 µM
4 | EWAPPLPPRNRPRRSGGSKETYSK (HELM PEPTIDE1{E.W.A.P.P.L.P.P.R.N.R.P.R.R.S.G.G.S.K.E.T.[O=C([C@H](Cc1ccc(O)c(O)c1)N[*:1])[*:2]].S.K.[am]}$$$$V2.0; N-terminus assumed; SMILES CC(C)C[C@H](NC(=O)[C@@H]1CCCN1C(=O)[C@@H]1CCCN1C(=O)[C@H](C)NC(=O)[C@H](Cc1c[nH]c2ccccc12)NC(=O)[C@@H](N)CCC(=O)O)C(=O)N1CCC[C@H]1C(=O)N1CCC[C@H]1C(=O)N[C@@H](CCCNC(=N)N)C(=O)N[C@@H](CC(N)=O)C(=O)N[C@@H](CCCNC(=N)N)C(=O)N1CCC[C@H]1C(=O)N[C@@H](CCCNC(=N)N)C(=O)N[C@@H](CCCNC(=N)N)C(=O)N[C@@H](CO)C(=O)NCC(=O)NCC(=O)N[C@@H](CO)C(=O)N[C@@H](CCCCN)C(=O)N[C@@H](CCC(=O)O)C(=O)N[C@H](C(=O)N[C@@H](Cc1ccc(O)c(O)c1)C(=O)N[C@@H](CO)C(=O)N[C@@H](CCCCN)C(N)=O)[C@@H](C)O) [peptide 2] | – | – | 132 | – | –
5 | YDLFNKGSGGAPPLPPRNRPRRS (HELM PEPTIDE1{[N[C@@H](Cc1ccc(O)c(O)c1)C(=O)[*:2]].D.L.F.N.K.G.S.G.G.A.P.P.L.P.P.R.N.R.P.R.R.S.[am]}$$$$V2.0; N-terminus assumed; SMILES CC(C)C[C@H](NC(=O)[C@H](CC(=O)O)NC(=O)[C@@H](N)Cc1ccc(O)c(O)c1)C(=O)N[C@@H](Cc1ccccc1)C(=O)N[C@@H](CC(N)=O)C(=O)N[C@@H](CCCCN)C(=O)NCC(=O)N[C@@H](CO)C(=O)NCC(=O)NCC(=O)N[C@@H](C)C(=O)N1CCC[C@H]1C(=O)N1CCC[C@H]1C(=O)N[C@@H](CC(C)C)C(=O)N1CCC[C@H]1C(=O)N1CCC[C@H]1C(=O)N[C@@H](CCCNC(=N)N)C(=O)N[C@@H](CC(N)=O)C(=O)N[C@@H](CCCNC(=N)N)C(=O)N1CCC[C@H]1C(=O)N[C@@H](CCCNC(=N)N)C(=O)N[C@@H](CCCNC(=N)N)C(=O)N[C@@H](CO)C(N)=O) [peptide 3] | – | 6 | – | – | –
6 | APPLPPRNRPRRSGKNFLDY (HELM PEPTIDE1{A.P.P.L.P.P.R.N.R.P.R.R.S.G.K.N.F.L.D.[O=C([C@H](Cc1ccc(O)c(O)c1)N[*:1])[*:2]].[am]}$$$$V2.0; N-terminus assumed; SMILES CC(C)C[C@H](NC(=O)[C@H](Cc1ccccc1)NC(=O)[C@H](CC(N)=O)NC(=O)[C@H](CCCCN)NC(=O)CNC(=O)[C@H](CO)NC(=O)[C@H](CCCNC(=N)N)NC(=O)[C@H](CCCNC(=N)N)NC(=O)[C@@H]1CCCN1C(=O)[C@H](CCCNC(=N)N)NC(=O)[C@H](CC(N)=O)NC(=O)[C@H](CCCNC(=N)N)NC(=O)[C@@H]1CCCN1C(=O)[C@@H]1CCCN1C(=O)[C@H](CC(C)C)NC(=O)[C@@H]1CCCN1C(=O)[C@@H]1CCCN1C(=O)[C@H](C)N)C(=O)N[C@@H](CC(=O)O)C(=O)N[C@@H](Cc1ccc(O)c(O)c1)C(N)=O) [peptide 4] | – | – | – | 0.69 | –
